The values below are quoted from earlier work in publication PMC6359293.

One series deals with hsp70 (Homo sapiens) (UniProt P0DMV8).
The target of series [1] is Phosphoprotein XD XD (Measles morbillivirus) (UniProt P03422).
Sequence of UniProt P03422 (P03422 457-507): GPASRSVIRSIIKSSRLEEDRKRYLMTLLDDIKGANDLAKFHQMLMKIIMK

Sequence of UniProt P0DMV8 (P0DMV8 2-641): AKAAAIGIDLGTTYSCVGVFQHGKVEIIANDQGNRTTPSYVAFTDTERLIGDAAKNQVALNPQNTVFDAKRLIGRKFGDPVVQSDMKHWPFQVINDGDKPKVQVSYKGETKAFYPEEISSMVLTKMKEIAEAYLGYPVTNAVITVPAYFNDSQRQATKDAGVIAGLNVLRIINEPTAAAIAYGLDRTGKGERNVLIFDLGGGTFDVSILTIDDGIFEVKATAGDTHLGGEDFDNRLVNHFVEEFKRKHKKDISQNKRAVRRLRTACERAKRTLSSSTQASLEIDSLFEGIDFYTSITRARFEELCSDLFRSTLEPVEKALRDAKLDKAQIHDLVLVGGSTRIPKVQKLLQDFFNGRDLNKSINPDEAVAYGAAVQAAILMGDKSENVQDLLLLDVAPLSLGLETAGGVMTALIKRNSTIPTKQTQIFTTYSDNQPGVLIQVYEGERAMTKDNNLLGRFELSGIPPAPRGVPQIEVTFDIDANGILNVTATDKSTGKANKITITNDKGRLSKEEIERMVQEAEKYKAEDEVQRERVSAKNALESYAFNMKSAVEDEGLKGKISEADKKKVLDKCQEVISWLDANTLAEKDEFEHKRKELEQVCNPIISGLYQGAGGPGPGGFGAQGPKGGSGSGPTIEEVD

The term Kd denotes the equilibrium constant for the complex coming apart. Regarding “Measles virus nucleoprotein NTAIL NTAIL (from UniProt P04851)”, the Kd with hsp70 (Homo sapiens) is 70 µM; in series [1], 3 µM.
